T1: p55 TNF receptor (Homo sapiens, UniProt P19438)
T1 construct: human p55 TNF receptor (p55-IC residues 206-426); expressed in transfected cells; host or cells: SFY526 yeast
T1 sequence (P19438 235-455): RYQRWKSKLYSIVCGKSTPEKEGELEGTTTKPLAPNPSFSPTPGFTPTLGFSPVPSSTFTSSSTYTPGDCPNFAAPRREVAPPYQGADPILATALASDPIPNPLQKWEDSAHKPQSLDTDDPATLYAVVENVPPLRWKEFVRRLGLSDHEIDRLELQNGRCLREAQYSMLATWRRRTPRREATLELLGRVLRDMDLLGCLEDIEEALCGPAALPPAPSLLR

T2: CD40 (Homo sapiens, UniProt P25942)
T2 construct: human CD40 (CD40-IC, residues 216-277); expressed in transfected cells; host or cells: SFY526 yeast
T2 sequence (P25942 216-277): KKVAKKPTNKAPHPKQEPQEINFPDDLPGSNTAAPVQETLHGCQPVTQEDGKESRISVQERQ

B1: MORT-1: Mediator of Receptor-induced Toxicity; protein binding the intracellular domain of FAS-R, SEQ ID NO:2 (protein)
chain: VNQAPECRFGGGILGPLGKRRDLARASEPRTEGARRAGPQPRPLADPAMDPFLVLLHSVSSSLSSSELTELKFLCLGRVVKRKLERVQSGLDLFSMLLEQNDLEPGHTELLRELLASLRRHDLLRRVDDFEAGAAAGAAPGEEDLCAAFNVICDNVGKDWRRLARQLKVSDTKIDSIEDRYPRNLTERVRESLRIWKNTEKENATVAHLVGALRSCQMNLVADLVQEVQQARDLQNRSGAMSPMSWNSDASTSEAS
B2: MACHβ1: MACH isoform, cDNA SEQ ID NO: 4, amino acid SEQ ID NO: 5; lacks the CED3/ICE homology region (protein)
chain: MDFSRNLYDIGEQLDSEDLASLKFLSLDYIPQRKQEPIKDALMLFQRLQEKRMLEESNLSFLKELLFRINRLDLLITYLNTRKEEMERELQTPGRAQISAYRVMLYQISEEVSRSELRSFKFLLQEEISKCKLDDDMNLLDIFIEMEKRVILGEGKLDILKRVCAQINKSLLKIINDYEEFSKERSSSLEGSPDEFSNDFGQSLPNEKQTSGILSDHQQSQFCKSTGESAQTSQH

Experiments:
p55 TNF receptor = target: T1, p55 TNF receptor; test: Two-hybrid test of MORT-1 binding (FIG. 1), p55 TNF receptor; settings: p55-IC residues 206-426, FIG. 1
Excerpt: (§1) To isolate proteins interacting with the intracellular domain of the FAS-R, the yeast two-hybrid system was used (Fields and Song, 1989). […] In this system, the genes for the candidate interacting proteins are cloned into separate expression vectors. In one expression vector, the sequence of the one candidate protein is cloned in phase with the sequence of the GAL4 DNA-binding domain to generate a hybrid protein with the GAL4 DNA-binding-domain, and in the other vector, the sequence of the second candidate protein is cloned in phase with the sequence of the GAL4 activation domain to generate a hybrid protein with the GAL4-activation domain. The two hybrid vectors are then co-transformed into a yeast host strain having a lacZ or HIS3 reporter gene under the control of upstream GAL4 binding sites. Only those transformed host cells (cotransformants) in which the two hybrid proteins are expressed and are capable of interacting with each other, will be capable of expressing the reporter gene. In the case of the lacZ reporter gene, host cells expressing this gene will become blue in color when X-gal is added to the cultures. […]
(§2) In FIG. 1, there is depicted the interaction of the proteins encoded by the Gal4 DNA binding domain and activation-domain constructs (pGBT9 and pGAD-GH) within transfected SFY526 yeasts as assessed by β-galactosidase expression filter assay. […]

CD40 = target: T2, CD40; test: Two-hybrid test of MORT-1 binding (FIG. 1), CD40; settings: CD40-IC residues 216-277, FIG. 1
Excerpt: as §1, §2

Lamin = test: Two-hybrid β-galactosidase expression filter assay in SFY526 yeast, DNA-binding domain hybrid Lamin; settings: specificity test
Excerpt: as §1, with “sites.” for “sites. Only those transformed host cells (cotransformants) in which the two hybrid proteins are expressed and are capable of interacting with each other, will be capable of expressing the reporter gene. In the case of the lacZ reporter gene, host cells expressing this gene will become blue in color when X-gal is added to the cultures.”
The yeast two-hybrid test was further applied to evaluate the specificity of binding of MACH to MORT-1, in particular, to define the region in MORT-1 to which MACH binds, as well as to determine which of the MACH ORFs interacts with MORT-1, the procedures being as set forth herein above in Examples 1 and 2. Briefly, various MORT-1 and MACH constructs were prepared for testing the interaction of the proteins encoded by the Gal4 DNA-binding domain and activation domain constructs within transfected SFY526 yeast cells as assessed by the β-galactosidase expression filter assay. […]

Row | Molecule | binding to p55 TNF receptor in two-hybrid test (p55 TNF receptor) | binding to CD40 in two-hybrid test (CD40) | development of color (interaction with DNA-binding domain hybrid) (Lamin)
1 | B1 | not | not | –
2 | B2 | – | – | −−− (“−−−” indicates the lack of development of color within 24 hrs. of the assay)
